The target in this assay is Pragmin 906-1368 (Pragmin C) (Rattus norvegicus) (UniProt D3ZMK9). Description: MALLS + DLS + SAXS.

The values that follow come from doi:10.1101/218669.

The term stoichiometry N denotes a count of units in the complex or per binding partner.

In the case of “Pragmin 906-1368 (Pragmin C) (from UniProt D3ZMK9 906-1368) (domain or fragment)”, the stoichiometry N worked out at 2.
